Target: the molecule itself
Test: SEC

B1: human tryptophan 2,3-dioxygenase (40-390), Met108Ile variant (enzyme, UniProt P48775 40-390, looked up)
chain: LIYGNYLHLEKVLNAQELQSETKGNKIHDEHLFIITHQAYELWFKQILWELDSVREIFQNGHVRDERNILKVVSRMHRVSVILKLLVQQFSILETMTALDFNDFREYLSPASGFQSLQFRLLENKIGVLQNMRVPYNRRHYRDNFKGEENELLLKSEQEKTLLELVEAWLERTPGLEPHGFNFWGKLEKNITRGLEEEFIRIQAKEESEEKEEQVAEFQKQKEVLLSLFDEKRHEHLLSKGERRLSYRALQGALMIYFYREEPRFQVPFQLLTSLMDIDSLMTKWRYNHVCMVHRMLGSKAGTGGSSGYHYLRSTVSDRYKVFVDLFNLSTYLIPRHWIPKMNPTIHKFLY
In the case of B1, the “stoichiometry N” value is reported as 4.

— paper PMC5421356 (Molecular genetics and metabolism, 2017)
